In the RNAGym collection of RNA variant scans (doi:10.1021/acssynbio.7b00057):

B1: Pistol ribozyme (parent)
chain: GGGUCGUUGUUCCAUAAUCGCGUGGAUAUGGCACGCAAGUUUCUACCGGGCACCGUAAAUGUCCGACUGGAGCCGUUCGGGCGGCUAUAAACAGACCUCAGGCCCGAAGCGUGGCGGCACCUGCCGCCGGUGGUAAAAAAGAUCGGAAGAGCACACGUCU

Variants of: B1
Assay: aptazyme ON/OFF ratio, guanine; higher = stronger switching; co-transcriptional cleavage with and without guanine

Variant | aptazyme ON/OFF ratio
U7A U8C G9U U11C C13G | 1.03
U7A U8C G9U U11C C13U | 1.05
U7A U8C G9U U11C C13A | 1.04
U7A U8C U11A C12A C13U | 1.27
U7A U8C U11A C12A C13A | 1.2
U7A U8C U11A C12A C13G | 1.16
U7A U8C U10G U11A C12U C13G | 1.14
U7A U8C U10G U11A C12U C13U | 1.2
U7A U8C U10G U11A C12U C13A | 1.2
U7A U8C U10G C12G C13G | 1.11
U7A U8C U10G C12G C13A | 1.09
U7A U8C U10G C12G C13U | 1.19
U7A U8C U10A U11A C12A C13U | 1.17
U7A U8C U10A U11A C12A C13G | 1.15
U7A U8C U10A U11A C12A C13A | 1.07
U7A U8C U10A U11G C12A C13G | 1.15
U7A U8C U10A U11G C12A C13U | 1.22
U7A U8C U10A U11G C12A C13A | 1.17
U7A U8C U11C C12A | 1.39
U7A U8C U11C C12U | 1.46
U7A U8C U11C C12G | 1.63

Variant | aptazyme ON/OFF ratio
U7A U8C U10A U11C C13A | 1.05
U7A U8C U10A U11C C13G | 1.05
U7A U8C U10A U11C C13U | 1.02
U7A U8C U10G U11C C13G | 1.18
U7A U8C U10G U11C C13U | 1.27
U7A U8C U10G U11C C13A | 1.18
U7A U8C U11C C12A C13U | 1.37
U7A U8C U11C C12A C13A | 1.44
U7A U8C U11C C12A C13G | 1.31
U7A U8C U10G U11G | 1.4
U7A U8C U10G U11A | 1.14
U7A U8C U10G U11C | 1.74
U7A U8C U10G U11A C13G | 1.2
U7A U8C U10G U11A C13A | 1.12
U7A U8C U10G U11A C13U | 1.09
U7A U8C U10C U11G | 1.26
U7A U8C U10C U11C | 1.04
U7A U8C U10C U11A | 1.16
U7A U8C G9U U10G U11A C12U C13G | 1.09
U7A U8C G9U U10G U11A C12U C13A | 1.06
U7A U8C G9U U10G U11A C12U C13U | 1.2

Variant | aptazyme ON/OFF ratio
U7A U8C U11A | 1.14
U7A U8C U11C | 1.2
U7A U8C G9U U10G C12G | 1.13
U7A U8C G9U U10G C12U | 1.17
U7A U8C G9U U11G C12A | 1.09
U7A U8C G9U U11G C12U | 1.35
U7A U8C G9U U11G C12G | 1.16
U7A U8C U10C U11C C12A | 1.14
U7A U8C U10C U11C C12U | 1.04
U7A U8C U10C U11C C12G | 1.19
U7A U8C G9U U10G U11C C13U | 1.03
U7A U8C G9U U10G U11C C13G | 1.08
U7A U8C G9U U10G U11C C13A | 1.17
U7A U8C U10C U11G C13A | 1.2
U7A U8C U10C U11G C13U | 1.23
U7A U8C U10C U11G C13G | 1.24
U7A U8C U10C C12A C13G | 1.15
U7A U8C U10C C12A C13A | 1.25
U7A U8C U10C C12A C13U | 1.26
U7A U8C G9U U11A C12U C13G | 1.22
U7A U8C G9U U11A C12U C13A | 1.37

Variant | aptazyme ON/OFF ratio
U7A U8C G9U U11A C12U C13U | 1.16
U7A U8C U10C U11G C12A C13A | 1.33
U7A U8C U10C U11G C12A C13G | 1.28
U7A U8C U10C U11G C12A C13U | 1.18
U7A U8C G9U U10G U11C C12U C13G | 1.19
U7A U8C G9U U10G U11C C12U C13A | 1.2
U7A U8C G9U U10G U11C C12U C13U | 1.09
U7A U8C U10C U11C C12A C13U | 1.16
U7A U8C U10C U11C C12A C13A | 1.09
U7A U8C U10C U11C C12A C13G | 1.16
U7A U8C U10G U11C C12U C13G | 1.29
U7A U8C U10G U11C C12U C13U | 1.51
U7A U8C U10G U11C C12U C13A | 1.36
U7A U8C U11C C13G | 1.13
U7A U8C U11C C13U | 1.17
U7A U8C U11C C13A | 1.19
U7A U8C U10A C13U | 1.05
U7A U8C U10A C13G | 1.01
U7A U8C U10A C13A | 1.06
U7A U8C U10C U11G C12G C13G | 1.24
